Experimental data reported in publication PMC12747932, “Crystal structures of Kif2A complexed with WDR5 reveal the structural plasticity of WIN-S7 sites” (Acta Biochimica et Biophysica Sinica, 2025).

How the values were obtained:
Test in all cases: ITC; peptide (approximately 1 mM) titrated into protein (0.05 mM), 20°C, Buffer E (20 mM Tris-HCl, 200 mM NaCl, pH 7.5), single binding site model, duplicate
Details in all cases: both partners purified
[1] = molecular target: human WDR5 seven tandem WD-40 domain (residues 24–334) (human, UniProt P61964 24-334)
[2] = molecular target: WDR5 Y191F variant (residues 24–334) (human, UniProt P61964 24-334, Y191F)
[3] = molecular target: human WDR5 seven tandem WD-40 domain (residues 24–334) (human, UniProt P61964 24-334); remark: listed apart in the source

| Binder | Kd [1] [µM] | dH [1] [kcal/mol] | stoichiometry N [1] | Kd [2] [µM] | dH [2] [kcal/mol] | stoichiometry N [2] | Kd [3] [µM] | dH [3] [kcal/mol] | stoichiometry N [3] |
| --- | --- | --- | --- | --- | --- | --- | --- | --- | --- |
| GSARARPSQ (also called wild-type Kif2A; source: synthetic peptide (GenScript)) [Kif2A 114–122 peptide] | 0.78 | -15.7 ± 0.13 | 0.91 | 0.96 | -9 ± 0.08 | 1.27 | – | – | – |
| GSARARPGQ (also called Kif2A^S121G; source: synthetic peptide (GenScript)) [Kif2A 114–122 (S121G) peptide] | 3.72 | -10.6 ± 0.14 | 0.94 | – | – | – | – | – | – |
| GSARARP (also called truncated Kif2A; source: synthetic peptide (GenScript)) [Kif2A 114–120 peptide] | 6.71 | -9.2 ± 0.11 | 1.19 | – | – | – | – | – | – |
| GSARARPAQ [Kif2A S121A peptide] | – | – | – | – | – | – | 2.16 | -13 ± 0.12 | 0.97 |
